Sequences and labels used below:
B1: BtBamK (Bt3949) (natural protein, UniProt Q8A0S2 21-214, looked up)
chain: CDDSKTYAEMLEDEKNAVNKFIKDKGIRIISQDEFEKNDTVTNLERNEYVALSDGVYMQIVDRGSAENKTDTFANNNEICVRYIEEDIMTRDTTCFNVFLEEWGDANQLYTNPAVFRYVAEGSYVYGTFIQMDYYWASYYQSTAVPAGWLLALPFVRNYAHVRLIVPSKVGHSSAQQYVNPYYYDIWTFSKALN
modifications: lipid anchor cysteine; O-glycosylation sites
B2: BtBamI (Bt3727) (natural protein, UniProt Q8A1D9 22-493, looked up)
chain: CLDNDNEVNYSPDATIRAFELDTIGYGVNYKFTIDQVSRLIYNVDSLPVNADTIINSILIKTLTTASGIVTMKDQNDQDSIVNINDSIDLTKYVNATEKNNFLVLKVWAPNMEVQNEYKVNIRMHTMVPDSLSWGKDPIANNPVRNTAEKQKVVTLGDKILLFAQNNEIYSTAIPAGSPTDRLNYGQKWDKETTGKLPDGADVTSIIRFVDKLYLLTKNKEVYNSNDGLTWTKDEVLNSDGVSVTNLITSFSDSDGSNHKKINGIAGIVEINGEKYFSFAEKDVTWEKDIDKLTVVPAEFPINNLSADVYATESGTLNAIVVGNTEDGLDNDTATVVWASEDGKAWIPMEIPSNNNCPKLVDPSIIHYNDAFYICGKETKDDAKGFQKFYTSPTLLVWKGVDRMFMLPGILPPVKLEGGVTQHPSLHESSFKGKEVNYTMVVDRNHYIWMVGGQGIDKIWRGRVNKLGFLIQ
modifications: lipid anchor cysteine; O-glycosylation at 10 sites (Ser67 among them)
B3: PgBamG, BamG of P. gingivalis ATCC 33277 (natural protein, UniProt B2RKY8 31-434, looked up)
chain: QNNNFTESPYTRFGLGRLGERTTISGHSMGGLGVGLRQGTYVNAVNPASYSAVDSMTFIFDFGASTGITWYAENGKKDNRKMGNIEYFAMLFPISKSIAMSAGVLPYSASGYQFGSVDQVEGGSVQYTRKYLGTGNLNDLYVGIGATPFKNFSIGANASFLFGRFTHSRQVIFSTEAPYNPVHLSTLYLKAAKFDFGMQYHLPLKSDRSLVIGAVYSPRVKMHSELTQIKNQVQNGVVVESETQEYIKGMDYYTLPHTLGIGFSYEKKDKLLLGADVQYSKWKGEKFYKSDCKFQDRIRVSLGGEIMPDINAVGIWPKVRYRFGLHGENSYLKVPTKGGVYQGYHIVGAVFGIGIPLNDRRSFVNVSLEYDRLIPKEGMIKENALKLTFGLTFNESWFKKLKLN
modifications: O-glycosylation (Ser85)
notes: BamG of Porphyromonas gingivalis strain ATCC 33277; source: endogenous, P. gingivalis expressing His-tagged BamH, membranes solubilised in 1% DDM
B4: PgBamH (PGN_1735) with C-terminal 7His tag (natural protein, P. gingivalis, UniProt B2RLK9 19-455, looked up)
chain: CDDDLSPIGGSIQPPSDPVSARVDTLEFSVKTIPMGDIYNRTNYTLLGDLTDPEYGDLKADYIMQFKSPRNFKFKYPPKDGKIDSVKLSINYDSWAGDSTSIMKVSIYKINKAIPPSYYSTQELASLLDETQIIASQTFKAGNDSAFHRVRIPLPNEIGQKIYDLSVNNPSVFDTQESFYNNVLGGLYVTTTTGTGVVLSVYNTQMAIFYSYKVAADSTATASETFVNTSESYQVNHIKNSQISHLLQENDSLSCVKSPAGVMTQLTISKEQFTDAFTSNLSSSLAWQIGEAQFNISASKPSEGLMLSPPSYLLLLPQDSVRNFFEQEQTELMQPRTAFLSTIYNIKKREYRFSNISRLLMEHIKNNTEKTPEGKPYITKDLVLVLLPVKRQVAGASNSLYTSQLNNFMFPSGVKLQLGKKNKTARIGVYSMTYTDN
modifications: tri-acylated lipid anchor; O-glycosylation (7 sites)
notes: BamH (PGN_1735) of Porphyromonas gingivalis strain ATCC 33277, surface-exposed lipoprotein; 88 residues shorter than BtBamH; also called His-tagged BamH; source: C-terminally His-tagged by homologous recombination in P. gingivalis; membranes solubilised in 1% DDM; not shown: His7, C-terminal, kept
B5: BtBamD (Bt0573) (natural protein, UniProt Q8AA92 18-267, looked up)
chain: CGEYNKLLKSTDYEYKYEAAKNYFAKGQYNRSATLLNELITILKGTDKAEESLYMLGMSYYNQKDYQTAAQTFITYFNTYPRGTFTELARFHAGKSLFLDTPEPRLDQSSTYQAIQQLQMFMEYFPNSTKKQEAQDMIFALQDKLVLKELYSAKLYYNLGNYLGNNYESCVITAQNALKDYPYTDYREELSILILRARHEMAIYSVEDKKMDRYRETIDEYYAFKNEFPESKYLKEAEKIFNESQKVIKD
B6: PgBamK, BamK of P. gingivalis ATCC 33277 (natural protein, UniProt B2RK12 24-203, looked up)
chain: CKKSDIKSLKEMKKDERKAIESFINRMGFTIKEGHEGQSEFDPDIMYHFDNDLYMQVLDKGKEPPVLNKTKINVRMEGFMFNRERDSIYVFNSLTSGGFQESVFRYIYKYNDGDIHFELIKCTTGSNLDMFVCEGVAFPMTMLGNKARVRLIVPFRIGPESLYSRGLTGYYKEVEYVFRD
notes: BamK (peptidyl-prolyl isomerase) of Porphyromonas gingivalis strain ATCC 33277; source: endogenous, P. gingivalis expressing His-tagged BamH, membranes solubilised in 1% DDM
B7: PgBamJ, BamJ of P. gingivalis ATCC 33277 (natural protein, UniProt B2RH82 25-185, looked up)
chain: CEKRPNEEKQRRHDNEVAFNAYADSTNFKKVSVDGSTAYVYMRWITNGTGTEHPIATSRVEVHYQTYRLVGNIMVDGNYNSEKPARITLYRNEKDKSITGFRIALQNMVIGDECEFIVPWYLAYGSKGVPASSANLVPIPSYSALRFIVKLSGIIPEEDKK
notes: BamJ (peptidyl-prolyl isomerase) of Porphyromonas gingivalis strain ATCC 33277; source: endogenous, P. gingivalis expressing His-tagged BamH, membranes solubilised in 1% DDM

The target in one assay is T1, BtBamH (Bt4306) (B. thetaiotaomicron (endogenous in B. …, UniProt Q89ZS0 18-542, tri-acylated lipid anchor on the N-terminal cysteine)); O-glycosylation (Ser309 among the sites)).
T1 sequence (looked up): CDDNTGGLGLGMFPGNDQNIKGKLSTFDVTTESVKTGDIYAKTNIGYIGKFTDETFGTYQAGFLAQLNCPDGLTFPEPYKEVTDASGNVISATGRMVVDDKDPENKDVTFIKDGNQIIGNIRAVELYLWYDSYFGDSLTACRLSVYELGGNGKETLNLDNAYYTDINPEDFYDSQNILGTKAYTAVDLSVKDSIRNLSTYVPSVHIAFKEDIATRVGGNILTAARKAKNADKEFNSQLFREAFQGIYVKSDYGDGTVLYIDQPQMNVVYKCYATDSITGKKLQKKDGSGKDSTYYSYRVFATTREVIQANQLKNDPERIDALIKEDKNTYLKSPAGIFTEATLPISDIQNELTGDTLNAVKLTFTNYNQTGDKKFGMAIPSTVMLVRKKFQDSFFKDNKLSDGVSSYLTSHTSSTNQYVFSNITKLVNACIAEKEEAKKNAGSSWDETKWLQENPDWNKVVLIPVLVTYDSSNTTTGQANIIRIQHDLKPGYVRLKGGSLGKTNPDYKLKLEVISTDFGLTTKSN
Briefly: cryo-EM structure; BtBAM complex co-purified through BamAhis from native membranes, in DDM, 8 mg/ml; two 3D classes (3.28 Å and 3.46 Å); AF2 models docked and refined. The conditions noted are these: both partners purified.

The target in assay [1] is T2, PgBamA, BamA of P. gingivalis ATCC 33277 (P. gingivalis (endogenous in P. …, UniProt B2RHH3 20-891)).
T2 construct: BamA of Porphyromonas gingivalis strain ATCC 33277; Periplasmic part only very weak, not modelled, possibly clipped by gingipains; EL3 (39 residues) has no density; source: endogenous, P. gingivalis expressing His-tagged BamH, membranes solubilised in 1% DDM
T2 sequence (looked up): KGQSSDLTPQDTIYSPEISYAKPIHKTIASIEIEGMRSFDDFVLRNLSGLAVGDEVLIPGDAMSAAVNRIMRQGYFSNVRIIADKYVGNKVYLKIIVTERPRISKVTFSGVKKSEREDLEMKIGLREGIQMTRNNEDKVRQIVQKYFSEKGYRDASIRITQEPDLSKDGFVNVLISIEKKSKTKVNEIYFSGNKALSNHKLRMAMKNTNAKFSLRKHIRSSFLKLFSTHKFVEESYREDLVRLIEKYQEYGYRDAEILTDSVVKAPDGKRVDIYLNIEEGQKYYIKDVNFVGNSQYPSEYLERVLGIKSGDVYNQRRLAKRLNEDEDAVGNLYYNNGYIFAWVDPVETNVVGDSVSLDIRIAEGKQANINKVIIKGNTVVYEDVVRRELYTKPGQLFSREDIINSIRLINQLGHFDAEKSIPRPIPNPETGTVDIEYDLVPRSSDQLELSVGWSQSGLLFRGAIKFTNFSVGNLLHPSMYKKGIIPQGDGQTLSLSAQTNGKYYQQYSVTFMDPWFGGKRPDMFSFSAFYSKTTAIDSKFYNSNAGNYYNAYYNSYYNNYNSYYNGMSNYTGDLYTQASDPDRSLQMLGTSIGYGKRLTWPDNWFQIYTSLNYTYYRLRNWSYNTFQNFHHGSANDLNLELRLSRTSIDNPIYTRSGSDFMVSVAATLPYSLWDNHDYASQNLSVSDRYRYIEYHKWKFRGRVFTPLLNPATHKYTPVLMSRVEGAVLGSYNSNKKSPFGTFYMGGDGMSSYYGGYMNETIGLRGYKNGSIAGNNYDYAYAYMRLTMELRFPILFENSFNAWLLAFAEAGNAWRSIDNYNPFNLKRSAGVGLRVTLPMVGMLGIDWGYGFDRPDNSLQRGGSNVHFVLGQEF
Briefly: cryo-EM structure; PgBAM complex co-purified through C-terminally His-tagged BamH from P. gingivalis membranes, in DDM, 4.9 mg/ml; 3.24 Å class without periplasmic density; AF2 models docked and refined. The note with it: both partners purified.

The target in assay [2] is B4. Described as above. The conditions noted are these: both partners purified.
The target in assay [3] is T3, BtBamA (Bt3725), B. thetaiotaomicron BamA with N-terminal His7 tag (B. thetaiotaomicron, UniProt Q8A1E1 20-885).
T3 sequence (looked up): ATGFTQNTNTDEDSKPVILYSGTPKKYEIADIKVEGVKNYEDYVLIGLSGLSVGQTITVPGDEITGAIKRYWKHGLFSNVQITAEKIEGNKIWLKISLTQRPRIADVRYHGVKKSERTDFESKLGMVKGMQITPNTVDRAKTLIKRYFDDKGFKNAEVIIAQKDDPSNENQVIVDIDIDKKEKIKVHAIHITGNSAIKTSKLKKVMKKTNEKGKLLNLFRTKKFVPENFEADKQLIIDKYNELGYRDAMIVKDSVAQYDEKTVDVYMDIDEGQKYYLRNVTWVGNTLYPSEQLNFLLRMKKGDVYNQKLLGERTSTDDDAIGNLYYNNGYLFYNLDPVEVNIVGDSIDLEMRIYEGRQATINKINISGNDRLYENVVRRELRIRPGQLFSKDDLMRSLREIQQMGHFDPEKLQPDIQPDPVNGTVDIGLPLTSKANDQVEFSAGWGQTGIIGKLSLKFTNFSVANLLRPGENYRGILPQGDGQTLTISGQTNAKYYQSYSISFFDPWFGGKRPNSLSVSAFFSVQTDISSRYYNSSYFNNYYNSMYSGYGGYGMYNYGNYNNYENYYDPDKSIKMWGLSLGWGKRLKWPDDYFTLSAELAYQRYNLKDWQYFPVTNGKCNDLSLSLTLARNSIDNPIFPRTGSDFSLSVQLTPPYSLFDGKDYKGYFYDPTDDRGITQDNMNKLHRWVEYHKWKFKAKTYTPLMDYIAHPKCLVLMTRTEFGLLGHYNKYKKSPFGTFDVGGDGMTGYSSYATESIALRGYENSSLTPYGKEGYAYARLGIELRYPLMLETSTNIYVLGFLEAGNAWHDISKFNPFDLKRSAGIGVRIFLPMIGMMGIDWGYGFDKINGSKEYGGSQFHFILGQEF
Briefly: affinity purification with mass spectrometry; chromosomally His7-tagged BamA as bait; B. thetaiotaomicron total membranes solubilised in TBS with 0.75% DDM and 0.75% DM; Ni IMAC, SEC in 10 mM HEPES-NaOH, 100 mM NaCl, 0.03% DDM pH 7.5; SDS-PAGE bands of pooled SEC peak fractions identified by peptide fingerprinting; IMAC elutions by quantitative proteomics against untagged wild-type cells. The note with it: partners not purified.

Consider B1, for which the binding result with BtBamH (Bt4306) is listed as “binds”.

Turning to B2, the binding result with BtBamH (Bt4306) is “binds”.

Turning to B3, the binding result in assay [1] and in assay [2] was “binds” throughout.

Take B4: the binding result in assay [1] is given as “binds”.

For the molecule B5, in assay [3], the binding result is on record as “binds”.

For the molecule B6, the binding result in assay [2] was “binds”.

Take B7: the binding result in assay [2] is on record as “binds”.
